# Laboratory results published in patent US20240165163A1.
# Target: human CD19 (human) (UniProt P15391)
# Assay: cell-based or functional assay
# Sequence of UniProt P15391 (P15391 20-556): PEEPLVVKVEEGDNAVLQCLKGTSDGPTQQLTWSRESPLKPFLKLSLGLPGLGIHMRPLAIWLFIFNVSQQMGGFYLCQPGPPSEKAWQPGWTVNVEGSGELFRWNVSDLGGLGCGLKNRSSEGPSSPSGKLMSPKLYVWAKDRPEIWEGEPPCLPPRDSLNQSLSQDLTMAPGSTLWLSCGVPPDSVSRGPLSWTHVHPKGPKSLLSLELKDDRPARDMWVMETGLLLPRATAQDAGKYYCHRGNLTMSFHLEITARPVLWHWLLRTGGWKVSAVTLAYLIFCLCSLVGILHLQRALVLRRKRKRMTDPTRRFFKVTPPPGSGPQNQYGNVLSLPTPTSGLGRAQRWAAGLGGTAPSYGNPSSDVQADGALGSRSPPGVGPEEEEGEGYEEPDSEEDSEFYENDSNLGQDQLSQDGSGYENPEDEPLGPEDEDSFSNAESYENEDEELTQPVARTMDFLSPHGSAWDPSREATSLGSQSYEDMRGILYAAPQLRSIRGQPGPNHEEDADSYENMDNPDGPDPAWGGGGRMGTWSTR
substance,measurement,value
antiCD19scFv-CD8Hinge2-Notch1TMD-Notch2STS-truncCD28delTPRRP-CD3z-Gal4VP64 (receptor),Circuit Expression (inducible BFP reporter),> 80%
